Experiment: soluble on expression in E. coli; label from the status in PepcDB or PDB records

Sequence	soluble on expression in E. coli
MSLNPTIQPYQFNIIKEQVAVLLNTYTSVNDATTVKTVQALCAEKINGLFPEEHPAVTILLDKVMDRRLTRARAEKYLDELKETVLPFKEPSTPQVTKVFRKVKKLKIPEWENMDLRNNTYVGWNDAGTQKIFILAYRENKLIGVHGTLSPTIVKGVCSICQTITNVSMFLATTKSGGDGTYTKKGNYICHDSDTCNQQLTQPEYLEAFMENVKAVKEGHHHHHH	soluble
MEVTDVRLRRVNTEGRMRAIASITLDHEFVVHDIRVIDGNNGLFVAMPSKRTPDGEFRDIAHPINSGTRSKIQDAVLTEYHRLGELEEVEFEEAGAS	not soluble
MSDVSRILKEARSQSRLTTLDYAEQIFDDFMELHGDRHFADDGAIVGGIGLLDGQAVTVIGVQKGKNLQDNLNRNFGQPNPEGYRKALRLMKQAEKFKRPVVTFINTAGAYPGIGAEERGQGEAIARNLLEMSDLKVPIIAIIIGEGGSGGALALAVADKVWMLEHTMYAVLSPEGFASILWKDGSRSIEAAELMKITAGELLKMEVVDKVIPEHGYFSSEIIQMLKTNLIEELKNLDQYPLNDLLEKRYQRFRKY	not soluble
QCYHGNGQSYRGTFSTTVTGRTCQSWSSMTPHRHQRTPENYPNDGLTMNYCRNPDADTGPWCFTMDPSIRREYCNLTRC	soluble
MEITKTDLFYNISEQQQAEMMHCFKTYTRTYKSGEVICFYDDNNIGVGIIESGSARVIHFLPNGTQTILEQLCRGDLFGQLFYHYACPESISLEATCDCVVRFIDYEHIIKRCSKACPHHSQLVNNILVIISDKTRSICEHLEVLSGRTIRDRLNNYFEILSSKSGSNTFKLPFTMTALADYLSVDRSAMSRELKKMKDEGLIQTNKGIVTINR	not soluble
MSLGNRMKVCIYGAGAIGGYLGVQLAQSGAADVSLVARGAHLQAMKENGLKLLIEGEERVIKPNATDKPAELGVQDVIIICLKAHSITGAIDSMKPLLGSHTRIVTAVNGVPYWYFHKHGGNEFEGRTLESIDPGGRQWKELGPERGIGCIVYPATELEAPGVIRHVYGDKFPIGEPSGETTSDVENLSKVFEASGLKAPILDRIRDEIWLKLWGNVCFNPISALTHATLDVIASDPATRALSKAMMLEAQQIAETFGVKFRVDVERRIEGARKVGAHKTSMLQDLERGRPMEIDPLVTVVQEMGRMTNIPTPAIDSVLGLVIQRAKVAGLYEGHHHHHH	soluble
MAHHHHHHMMSPFPPLPVYLSGLLTLHVPTRCLHFLVLTPMKTRVGLHRCCASYLRLLSQDRLQLHNPIEFIGALHFFTSLCSPLGVADFLRMEDPAAQEVVVTPWTVEGDVNYDKLIKNFGCQAIDDKLLERMERLTGKKPHHFLRRGIFFSHRDLNLILDAYEKGQPFYLYTGRGPSSESMHVGHLIPFMFTKWLQDTFHVPLVIQLTDDEKFFFKDLTMEEIDKMTTENLKDIIAFGFDPKLTFIFRDFEYVGQMYRIVARIEKAYTASQVRGCFGFKMEDNCGRWMFPAIQAAPSFSAAFPHIFPLQKGNVFCMIPQAIDQDPYFRLTRDVAPRMGYLKPAVIHSKFFPGLSGSKGKMSSSTGAAVFLTDTPKMIKDKINKHAFSGGGADKKEQLLLGGNTNVDVPVQWLRFFLEDDEELKRLQKDYMLGRIMTGDVKKVLIRQITSIVTAHQESRKKVTEADVELFTAVRVMGPAKEEAESRK	not soluble
MGSDKIHHHHHHRYSLLYVPNSFIVPGGRFREFYYWDAYWIIKGLIASDMYNTTRSMIRNLASMVDKYGFVPNGGRVYYLQRSQPPFLAAMVYELYEATNDKAFVAELLPTLLKELNFWNEKRMTDVQMNGKSFKVYQYKTASNVPRPESYRVDTQNSAKLANGADQQQFYQDLASAAESGWDFSTRWFSDYKTLTSIETTKVLPVDLNGLLCWNMDIMEYLYEQIGDTKNSQIFRNKRADFRDTVQNVFYNRTDGTWYDYNLRTQSHNPRFYTSTAVPLFTNCYNTLNTGKSQKVFDYMDKMGVFTYPGGIPTSMSQESDQQWDFPNGWSPNNHMIIEGLRKSANPEMQDKGFLIASKWVMGNFRVFYETGHMWEKYNVIGSYPQPGSGGEYDVQDGFGWSNGAILDLLLTYNDRLFVPENFVNTTVTPSVESTTKSAPKYAKLPWVLVFAFMIRQLFNY	not soluble
MVFRKSLLKLAVFALGACVAFSNANAAEGKLESIKSKGQLIVGVKNDVPHYALLDQATGEIKGFEVDVAKLLAKSILGDDKKIKLVAVNAKTRGPLLDNGSVDAVIATFTITPERKRIYNFSEPYYQDAIGLLVLKEKKYKSLADMKGANIGVAQAATTKKAIGEAAKKIGIDVKFSEFPDYPSIKAALDAKRVDAFSVDKSILLGYVDDKSEILPDSFEPQSYGIVTKKDDPAFAKYVDDFVKEHKNEIDALAKKWGL	soluble
AEIKAVSAARLLDVASGKYVDNPLVIVTDGRITSIGKKGDAVPAGATAVDLPGVTLLPGLIDMHVHLDSLAEVGGYNSLEYSDRFWSVVQTANAKKTLEAGFTTVRNVGAADYDDVGLREAIDAGYVPGPRIVTAAISFGATGGHCDSTFFPPSMDQKNPFNSDSPDEARKAVRTLKKYGAQVIKICATGGVFSRGNEPGQQQLTYEEMKAVVDEAHMAGIKVAAHAHGASGIREAVRAGVDTIEHASLVDDEGIKLAVQKGAYFSMDIYNTDYTQAEGKKNGVLEDNLRKDRDIGELQRENFRKALKAGVKMVYGTDAGIYPHGDNAKQFAVMVRYGATPLQAIQSATLTAAEALGRSKDVGQVAVGRYGDMIAVAGDPLADVTTLEKPVFVMKGGAVVKAP	soluble
MSLDFATEYVYPAFSELTGTDKIVAFGDHSHKCPIYVPQTPPCTAECPAGEDIRAINRFLNGTDPSDDPLKSAWETATDTNPFPAVMGRICPHPCQSKCNRGVHDESVAINAVEQVLGNYGIEHNLKLKGPGADTGKRVAIIGGGPAGLSAAYQLRRKGHAVTIYDANEKLGGMVLYGIMGYRVDRKVLEAEIGRIIELGVETKMGVTIGKDITLEQLEAEYDAVFIAVGAQKGRALPVPGFEGTPGATNAIDFLKSYEVLGDDIPVGKHVVVIGDGNVSMDVARLALRLGSQATIISGVPREEMACFENEFDDAKNEGTTMHFLTGTVEVLGGASGVTGLRCTKMVKKEKGEEGWNSPIPFLRYKSNGESFEIEADMVVAAIGQATDLSGLGSAASGPWLKVDRNFRIPGREKLFGGGDALKVDLITTAVGHGRKAAYAIDAFLKGEPMPEEGHHHHHH	soluble
MRQSSQARETTETKIKLNLQLDESTNVSIQTGVGFFDHMLTLFARHGRFGLQVEAEGDVFVDAHHTVEDVGIVLGNCLKEALQNKEGINRYGSAYVPMDESLGFVAIDISGRSYCVFQGELTNPKLGDFDTELTEEFFRAVAHAANITLHARVLYGSNTHHKIEALFKAFGRALREAVEKNANITGVNSTKGML	not soluble
MLEKSFLKSKQLFLCGLGVLMLQACTCPNTSQRNSFLQDVPYWMLQNRSEYITQGVDSSHIVDGKKTEEIEKIATKRATIRVAQNIVHKLKEAYLSKTNRIKQKITNEMFIQMTQPIYDSLMNVDRLGIYINPNNEEVFALVRARGFDKDALSEGLHKMSLDNQAVSILVAKVEEIFKDSVNYGDVKVPIAM	not soluble
GPGSMSNAKNGSETTYFTAIANRDVEALKALIAQNRNVNEVAQDPVLYHRTPLHICVWENFVEGAKLLLDAGADVNALDDLHDSPYLLSGAEGRQEIMEHIYKNAERTMRYGSQTSLRMKTSVPDHSIVNRFGGSALIPACERGHVEMVRLLLQKGVDVNHYNYYHWTGLLEAIELGGDDREHVDIVRLLIENGADVNQVDGAGKTPLYLARKRKYKRIAALLEAAGGHE	soluble
MSELTIGLILPDVLGTYGDDGNALVLRQRARLRGISAEIHTVRLGEAVPEGLDLYCLGGGEDTAQILAAEHLNNDRGLRRAADSGRPILGICAGLQVLGRSFRASGKIVEGVGLIDATTASLAKRTIGELQSTPTAAGFTAELTEPLTGFENHMGATILGPDAQPLGAVTRGVGNTDLHGITTASVSDEQVSYEGAVQGNVVCTYMHGPALARNPQLADLLLAKAMGIALADLAPLDLPVVDQLRKERLA	not soluble
MSLKKQLVKTDGHNQLDQPNTKALQLKKKQFNSGVRVTSEISFLREVIAHHPGIETERVIDNQTFGSAMYLERAQKEHQLFIKILRQHGTKVHYLQDLLLEALSAADPNVRQDFIKNFLLESGIKSVSTFEACLNFFRSLDSLVDVIKVMFGGIKVSDVPPITPQRFADIHVSNSPFLIKPLSFSLYPHKFFNTLGTGVALFVTNDSELKRHSLVYEYIMRFHPRFDGVKLYTNRDFKNCLINSSDIIQISNEILLIGISHDTDVLGIESLARNLLSDHTNPIKQIIAINIHKFGAKTNLNKLIAMVDVDKFIIARKVLQATEIFELTATAQRDVDGLAQIKFKPLKFNFGEIIEAIIDKQPRFVIIGGGDEVAERKELLDCGMGVLNLSPGEIVVFDRNHYTNNLLNELGLIIHKIPASELSRGPSGPLEMVCSLWREEGHHHHHH	soluble
MSLQNHDLESIKQAALIEYEVREQGSSDVLDSNISKEPLEFIIGANQIIVGLEKAVLKAQIGEWEEIVIAPEEAYGVYESGYLQEVPRDQFEGIELEKGMSVFGQTEDNQTIQATIKDFSNTHVMVDYNHPLAGKTLAFRFKVLGFREVSEEEILASHHDSGTGCCGGHGGHGGKKGGGCGCSCSHGEGGSHHHHHH	soluble
MGSDKIHHHHHHMSITPHRLPVAPVIVREAYLSLLRKGWRPGDRDLKTPRNVKIETGIIEKAEGSALVKLGKTQVIAGVKAGVGAPFKDTPNQGVLTVHAEFVPLASPVFEPGPPDENAIELARVVDRSLREVGAVDLESLVIRPGEKVWVLWVDLYIIDHDGNLFDASMLATMAVLLTARLPRYEESETGEIIISKEGEGEELKVKTRVVTVTTAKIDRYIVVDPNIEEEAVSDVRLVTAVDENGRIVGLQKTGMGSLTEADIETMIGYSLEASKVYFKALEEAIKP	not soluble
MHHPPVEELELIDSPAALEWAREWSQATQERWSNDALQRSIREALDTDARIPYVTRRGEYLYNFWRDRDHPRGVWRRTTLESFTSDSPQWQVLIDVDRLAASEEESWVWKGAHVRPHHFDRALIRLSRGGADAVEIREFDLDSGSFVEDHAFAVPEAKTQVCWVDRDTVLVGTDMGAGSLTESGYPARVHVWRRGTNLAEAEEFFCGLSSDLAVSAWAETVPGFERLFVRRALDFYRSRTFIQRDGHLQIIEVPEDCTVVVHREWMYVLPREEYAGIASGGVGAILFEDF	not soluble
MKTWPAPTAPTPVRATVTVPGSKSQTNRALVLAALAAAQGRGASTISGALRSRDTELMLDALQTLGLRVDGVGSELTVSGRIEPGPGARVDCGLAGTVLRFVPPLAALGSVPVTFDGDQQARGRPIAPLLDALRELGVAVDGTGLPFRVRGNGSLAGGTVAIDASASSQFVSGLLLSAASFTDGLTVQHTGSSLPSAPHIAMTAAMLRQAGVDIDDSTPNRWQVRPGPVAARRWDIEPDLTNAVAFLSAAVVSGGTVRITGWPRVSVQPADHILAILRQLNAVVIHADSSLEVRGPTGYDGFDVDLRAVGELTPSVAALAALASPGSVSRLSGIAHLRGHETDRLAALSTEINRLGGTCRETPDGLVITATPLRPGIWRAYADHRMAMAGAIIGLRVAGVEVDDIAATTKTLPEFPRLWAEMVGPGQGWGYPQPRSGQRARRATGQGSGGKLAAALEHHHHH	soluble
MDTPFIVFWELTRACMLACKHCRAKAIRKRHPDELTTEECFNVIDQLSEFNPKPLLIITGGDPLMRDDVTEIISHAAEKGFRVAIAFSGTEKATEEKLRELKEAGVARVAVSIDGSDEEKHDSFRGVRGTFRMSMMAIENAKKAGLPFQINTTVTRENIEDLPNIARLCLELGAVMWDVFFVVPTGRAKAEMMPTPQQFE	not soluble
MAHHHHHHMVFNQDHHEKECADAFVLARDGMSDFEGEKIERAFRGVTAALRFLDYQETTGTSTRSPTGSNSNAEQRSSGSHEPLVSGEDTNYHHVVCLVRSLDGEKENTPVN	not soluble

Source: the DeepSol protein solubility set
